Measurements taken from article PMC9482650, “Quantitative fragmentomics allow affinity mapping of interactomes” (Nature Communications, 2022).

Experiments:
Assay in all cases: holdup assay
Set-up in all cases: key: below the threshold = too weak to quantify, mostly under pKd 3.1 to 4
Conditions in all cases: plain residues with an end cap or a label only (N-terminal biotin on a linker: ado-ado)
SNTA1, Q13424 = biological target: T1, SNTA1, Q13424
T1 sequence (Q13424 82-180, limits assumed, looked up): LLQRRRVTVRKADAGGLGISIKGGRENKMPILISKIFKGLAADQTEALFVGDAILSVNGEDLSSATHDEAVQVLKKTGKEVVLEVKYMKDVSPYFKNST

Inadl_9, Q8NI35 = biological target: Inadl_9, Q8NI35
Inadl_9, Q8NI35, sequence (Q8NI35 1530-1615): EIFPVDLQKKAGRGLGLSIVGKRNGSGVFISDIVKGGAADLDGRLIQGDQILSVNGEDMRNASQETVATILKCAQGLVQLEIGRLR

MAST1, Q9Y2H9 = biological target: MAST1, Q9Y2H9
MAST1, Q9Y2H9, sequence (Q9Y2H9 962-1065): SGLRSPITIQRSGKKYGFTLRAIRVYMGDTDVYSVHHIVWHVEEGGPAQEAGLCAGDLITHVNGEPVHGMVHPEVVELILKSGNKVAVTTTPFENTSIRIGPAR

PARD3B_1, Q8TEW8 = biological target: T2, PARD3B_1, Q8TEW8
T2 sequence (Q8TEW8 196-299, limits assumed, looked up): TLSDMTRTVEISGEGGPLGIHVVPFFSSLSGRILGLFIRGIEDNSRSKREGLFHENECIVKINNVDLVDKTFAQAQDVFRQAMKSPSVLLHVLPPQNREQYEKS

NHERF2_2, Q15599 = biological target: NHERF2_2, Q15599
NHERF2_2, Q15599, sequence (Q15599 142-238): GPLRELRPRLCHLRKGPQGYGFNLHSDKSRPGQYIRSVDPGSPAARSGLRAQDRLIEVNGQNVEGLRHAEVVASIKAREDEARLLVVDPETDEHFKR

SNTG2, Q9NY99 = biological target: T3, SNTG2, Q9NY99
T3 sequence (Q9NY99 68-166, limits assumed, looked up): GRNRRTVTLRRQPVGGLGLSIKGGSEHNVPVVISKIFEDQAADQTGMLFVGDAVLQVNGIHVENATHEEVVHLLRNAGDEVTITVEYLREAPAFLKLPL

SNTG1, Q9NSN8 = biological target: T4, SNTG1, Q9NSN8
T4 sequence (Q9NSN8 52-150, limits assumed, looked up): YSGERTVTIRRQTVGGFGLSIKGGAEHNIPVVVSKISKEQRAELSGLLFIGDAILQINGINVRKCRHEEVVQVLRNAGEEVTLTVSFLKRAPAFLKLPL

HTRA3, P83110 = biological target: T5, HTRA3, P83110
T5 sequence (P83110 354-453, limits assumed, looked up): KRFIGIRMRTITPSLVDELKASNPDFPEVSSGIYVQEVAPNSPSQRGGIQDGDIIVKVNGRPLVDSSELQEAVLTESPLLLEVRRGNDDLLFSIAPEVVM

CARD11, Q9BXL7 = biological target: T6, CARD11, Q9BXL7
T6 sequence (Q9BXL7 662-765, limits assumed, looked up): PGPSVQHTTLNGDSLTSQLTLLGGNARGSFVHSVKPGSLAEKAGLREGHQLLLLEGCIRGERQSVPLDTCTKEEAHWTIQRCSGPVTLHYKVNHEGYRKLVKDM

SYNJ2BP, P57105 = biological target: T7, SYNJ2BP, P57105
T7 sequence (P57105 8-110, limits assumed, looked up): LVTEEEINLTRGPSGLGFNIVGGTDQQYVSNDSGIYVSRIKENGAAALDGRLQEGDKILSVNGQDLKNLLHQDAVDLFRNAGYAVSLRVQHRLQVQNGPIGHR

DLG2_3, Q15700 = biological target: DLG2_3, Q15700
PARD3_3, Q8TEW0 = biological target: PARD3_3, Q8TEW0
PARD3_3, Q8TEW0, sequence (Q8TEW0 582-685): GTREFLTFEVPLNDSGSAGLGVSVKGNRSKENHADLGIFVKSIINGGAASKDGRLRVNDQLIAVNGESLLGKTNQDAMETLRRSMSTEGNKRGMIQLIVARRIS

PCLO, Q9Y6V0 = biological target: T8, PCLO, Q9Y6V0
T8 sequence (Q9Y6V0 4491-4600, limits assumed, looked up): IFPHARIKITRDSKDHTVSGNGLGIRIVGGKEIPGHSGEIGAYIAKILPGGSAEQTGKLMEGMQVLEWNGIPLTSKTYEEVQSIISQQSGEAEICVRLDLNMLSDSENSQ

HTRA4, P83105 = biological target: T9, HTRA4, P83105
T9 sequence (P83105 378-476, limits assumed, looked up): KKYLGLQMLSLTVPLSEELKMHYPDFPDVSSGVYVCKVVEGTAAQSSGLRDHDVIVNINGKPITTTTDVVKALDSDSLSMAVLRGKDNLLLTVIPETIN

MAGI2_5, Q86UL8 = biological target: MAGI2_5, Q86UL8
MAGI2_5, Q86UL8, sequence (Q86UL8 915-1017): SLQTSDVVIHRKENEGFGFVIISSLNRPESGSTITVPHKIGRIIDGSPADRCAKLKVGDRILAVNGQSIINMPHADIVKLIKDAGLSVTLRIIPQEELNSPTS

Inadl_3, Q8NI35 = biological target: Inadl_3, Q8NI35
Inadl_3, Q8NI35, sequence (Q8NI35 359-469): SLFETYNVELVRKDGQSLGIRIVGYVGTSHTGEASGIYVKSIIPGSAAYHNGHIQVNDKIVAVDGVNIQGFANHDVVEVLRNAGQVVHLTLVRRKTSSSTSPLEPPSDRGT

NHERF4_1, Q86UT5-2 = biological target: NHERF4_1, Q86UT5-2
NHERF4_1, Q86UT5-2, sequence (Q86UT5 other isoform, or with tags, fused parts or gaps): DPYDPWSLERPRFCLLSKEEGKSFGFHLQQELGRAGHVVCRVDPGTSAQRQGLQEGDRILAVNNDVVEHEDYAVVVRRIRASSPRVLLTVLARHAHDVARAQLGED

SCRIB_2, Q14160 = biological target: SCRIB_2, Q14160
SCRIB_2, Q14160, sequence (Q14160 857-960): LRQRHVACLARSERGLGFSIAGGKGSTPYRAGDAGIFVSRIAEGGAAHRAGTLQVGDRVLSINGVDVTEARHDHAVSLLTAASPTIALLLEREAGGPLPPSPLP

ARHGEF12, Q9NZN5-2 = biological target: ARHGEF12, Q9NZN5-2
ARHGEF12, Q9NZN5-2, sequence (Q9NZN5 other isoform, or with tags, fused parts or gaps): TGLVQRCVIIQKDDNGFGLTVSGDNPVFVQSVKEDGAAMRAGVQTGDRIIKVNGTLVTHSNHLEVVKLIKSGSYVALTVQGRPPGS

LNX2_3, Q8N448 = biological target: T10, LNX2_3, Q8N448
T10 sequence (Q8N448 463-564, limits assumed, looked up): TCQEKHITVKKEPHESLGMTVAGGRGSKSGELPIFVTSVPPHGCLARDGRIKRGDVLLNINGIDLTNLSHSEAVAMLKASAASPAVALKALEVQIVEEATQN

NOS1, P29475 = biological target: NOS1, P29475
NOS1, P29475, sequence (P29475 9-101): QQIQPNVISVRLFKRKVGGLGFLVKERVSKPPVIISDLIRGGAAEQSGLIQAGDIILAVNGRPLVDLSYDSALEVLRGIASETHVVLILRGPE

AHNAK1, Q09666 = biological target: AHNAK1, Q09666
AHNAK1, Q09666, sequence (Q09666 4-100): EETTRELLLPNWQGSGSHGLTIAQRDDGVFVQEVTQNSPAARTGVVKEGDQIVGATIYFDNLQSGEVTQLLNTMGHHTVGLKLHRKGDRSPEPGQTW

Inadl_4, Q8NI35 = biological target: Inadl_4, Q8NI35
Inadl_4, Q8NI35, sequence (Q8NI35 547-651): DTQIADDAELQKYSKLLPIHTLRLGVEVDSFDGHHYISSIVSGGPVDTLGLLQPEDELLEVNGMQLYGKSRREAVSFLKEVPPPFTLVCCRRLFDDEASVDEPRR

IL16_1, Q14005 = biological target: IL16_1, Q14005
IL16_1, Q14005, sequence (Q14005 210-306): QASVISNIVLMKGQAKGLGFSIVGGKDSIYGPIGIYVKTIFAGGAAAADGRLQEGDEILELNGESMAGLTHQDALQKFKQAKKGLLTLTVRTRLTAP

MPP7, Q5T2T1 = biological target: T11, MPP7, Q5T2T1
T11 sequence (Q5T2T1 134-230, limits assumed, looked up): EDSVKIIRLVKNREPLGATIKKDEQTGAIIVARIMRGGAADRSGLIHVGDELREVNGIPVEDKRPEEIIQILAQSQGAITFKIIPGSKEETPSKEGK

TJP1_2, Q07157 = biological target: TJP1_2, Q07157
TJP1_2, Q07157, sequence (Q07157 181-274): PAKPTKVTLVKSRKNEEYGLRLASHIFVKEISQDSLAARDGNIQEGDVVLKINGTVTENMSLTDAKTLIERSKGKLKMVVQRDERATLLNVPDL

B1: PRKN, O60260 (peptide)
chain: VCMGDHWFDV
In the case of B1, the pKd (SNTA1, Q13424) is reported as “below the threshold”, the pKd (Inadl_9, Q8NI35) is reported as 3.69 and the pKd (MAST1, Q9Y2H9) is reported as “below the threshold”. The pKd (PARD3B_1, Q8TEW8) was 4.78, the pKd (NHERF2_2, Q15599) was “below the threshold” and the pKd (SNTG2, Q9NY99) was “below the threshold”. For the same binder, the pKd (SNTG1, Q9NSN8) was 3.81, the pKd (HTRA3, P83110) was 4.49 and the pKd (CARD11, Q9BXL7) was “below the threshold”. The pKd (SYNJ2BP, P57105) was “below the threshold”, the pKd (DLG2_3, Q15700) was “below the threshold” and the pKd (PARD3_3, Q8TEW0) was 4.25. The pKd (PCLO, Q9Y6V0) was “below the threshold”, the pKd (HTRA4, P83105) was 3.98 and the pKd (MAGI2_5, Q86UL8) was “below the threshold”. The pKd (Inadl_3, Q8NI35) was 4.9, the pKd (NHERF4_1, Q86UT5-2) was “below the threshold” and the pKd (SCRIB_2, Q14160) was “below the threshold”. For the same binder, the pKd (ARHGEF12, Q9NZN5-2) was “below the threshold”, the pKd (LNX2_3, Q8N448) was “below the threshold” and the pKd (NOS1, P29475) was 3.51. The pKd (AHNAK1, Q09666) was “below the threshold”, the pKd (Inadl_4, Q8NI35) was “below the threshold” and the pKd (IL16_1, Q14005) was “below the threshold”. For the same binder, the pKd (MPP7, Q5T2T1) was 4.85 and the pKd (TJP1_2, Q07157) was “below the threshold”.

B2: CCL24, O00175 (peptide)
chain: QRYPGNQTTC
B2 was tested, and the pKd (SNTA1, Q13424) was “below the threshold”, the pKd (Inadl_9, Q8NI35) was “below the threshold” and the pKd (MAST1, Q9Y2H9) was 4.14. For the same binder, the pKd (PARD3B_1, Q8TEW8) was “below the threshold”, the pKd (NHERF2_2, Q15599) was “below the threshold” and the pKd (SNTG2, Q9NY99) was “below the threshold”. The pKd (SNTG1, Q9NSN8) was “below the threshold”, the pKd (HTRA3, P83110) was 3.74 and the pKd (CARD11, Q9BXL7) was “below the threshold”. The pKd (SYNJ2BP, P57105) was “below the threshold”, the pKd (DLG2_3, Q15700) was 3.87 and the pKd (PARD3_3, Q8TEW0) was “below the threshold”. The pKd (PCLO, Q9Y6V0) was “below the threshold”, the pKd (HTRA4, P83105) was “below the threshold” and the pKd (MAGI2_5, Q86UL8) was “below the threshold”. The pKd (Inadl_3, Q8NI35) was “below the threshold”, the pKd (NHERF4_1, Q86UT5-2) was “below the threshold” and the pKd (SCRIB_2, Q14160) was “below the threshold”. The pKd (ARHGEF12, Q9NZN5-2) was 4.15, the pKd (LNX2_3, Q8N448) was “below the threshold” and the pKd (NOS1, P29475) was “below the threshold”. For the same binder, the pKd (AHNAK1, Q09666) was “below the threshold”, the pKd (Inadl_4, Q8NI35) was “below the threshold” and the pKd (IL16_1, Q14005) was “below the threshold”. For the same binder, the pKd (MPP7, Q5T2T1) was “below the threshold” and the pKd (TJP1_2, Q07157) was “below the threshold”.

B3: CTNND2, Q9UQB3 (peptide)
chain: HYPASPDSWV
In the case of B3, the pKd (SNTA1, Q13424) is reported as 4.17, the pKd (Inadl_9, Q8NI35) is reported as 3.9 and the pKd (MAST1, Q9Y2H9) is reported as 3.9. It also gave a pKd (PARD3B_1, Q8TEW8) of 3.52, a pKd (NHERF2_2, Q15599) of 3.84 and a pKd (SNTG2, Q9NY99) of 3.72. For the same binder, the pKd (SNTG1, Q9NSN8) was 4.64, the pKd (HTRA3, P83110) was 5.66 and the pKd (CARD11, Q9BXL7) was “below the threshold”. The pKd (SYNJ2BP, P57105) was 5.07, the pKd (DLG2_3, Q15700) was “below the threshold” and the pKd (PARD3_3, Q8TEW0) was 3.92. For the same binder, the pKd (PCLO, Q9Y6V0) was “below the threshold”, the pKd (HTRA4, P83105) was 4.06 and the pKd (MAGI2_5, Q86UL8) was “below the threshold”. The pKd (Inadl_3, Q8NI35) was “below the threshold”, the pKd (NHERF4_1, Q86UT5-2) was “below the threshold” and the pKd (SCRIB_2, Q14160) was 4.81. For the same binder, the pKd (ARHGEF12, Q9NZN5-2) was “below the threshold”, the pKd (LNX2_3, Q8N448) was “below the threshold” and the pKd (NOS1, P29475) was 3.86. For the same binder, the pKd (AHNAK1, Q09666) was “below the threshold”, the pKd (Inadl_4, Q8NI35) was “below the threshold” and the pKd (IL16_1, Q14005) was 4.24. The pKd (MPP7, Q5T2T1) was “below the threshold” and the pKd (TJP1_2, Q07157) was 4.19.

B4: TYRP1, P17643 (peptide)
chain: KLQNPNQSVV
B4 was tested, and the pKd (SNTA1, Q13424) was 3.99, the pKd (Inadl_9, Q8NI35) was “below the threshold” and the pKd (MAST1, Q9Y2H9) was 4.37. The pKd (PARD3B_1, Q8TEW8) was “below the threshold”, the pKd (NHERF2_2, Q15599) was “below the threshold” and the pKd (SNTG2, Q9NY99) was 3.64. The pKd (SNTG1, Q9NSN8) was 3.47, the pKd (HTRA3, P83110) was “below the threshold” and the pKd (CARD11, Q9BXL7) was “below the threshold”. For the same binder, the pKd (SYNJ2BP, P57105) was 3.91, the pKd (DLG2_3, Q15700) was “below the threshold” and the pKd (PARD3_3, Q8TEW0) was “below the threshold”. The pKd (PCLO, Q9Y6V0) was “below the threshold”, the pKd (HTRA4, P83105) was 3.94 and the pKd (MAGI2_5, Q86UL8) was 3.78. For the same binder, the pKd (Inadl_3, Q8NI35) was “below the threshold”, the pKd (NHERF4_1, Q86UT5-2) was “below the threshold” and the pKd (SCRIB_2, Q14160) was “below the threshold”. The pKd (ARHGEF12, Q9NZN5-2) was 3.92, the pKd (LNX2_3, Q8N448) was “below the threshold” and the pKd (NOS1, P29475) was “below the threshold”. For the same binder, the pKd (AHNAK1, Q09666) was “below the threshold”, the pKd (Inadl_4, Q8NI35) was “below the threshold” and the pKd (IL16_1, Q14005) was 3.94. For the same binder, the pKd (MPP7, Q5T2T1) was “below the threshold” and the pKd (TJP1_2, Q07157) was “below the threshold”.
